# Measurements taken from patent US20080119430.
# Where a chain is given by its changes, count along the chain named. In names and notes the source's numbering stands.
# B1: BNO69 (endogenous protein in HUVECs, knocked down by adenoviral antisense BNO69R) (protein)
# chain: MPEDRNSGGCPAGALASTPFIPKTTYRRIKRCFSFRKGIFGQKLEDTVRYEKRYGNRLAPMLVEQCVDFIRQRGLKEEGLFRLPGQANLVKELQDAFDCGEKPSFDSNTDVHTVASLLKLYLRELPEPVIPYAKYEDFLSCAKLLSKEEEAGVKELAKQVKSLPVVNYNLLKYICRFLDEVQSYSGVNKMSVQNLATVFGPNILRPKVEDPLTIMEGTVVVQQLMSVMISKHDCLFPKDAELQSKPQDGVSNNNEIQKKATMGLLQNKENNNTKDSPSRQCSWDKSESPQRSSMNNGSPTALSGSKTNSPKNSVHKLDVSRSPPLMVKKNPAFNKGSGIVTNGSFSSSNAEGLEKTQTTPNGSLQARRSSSLKVSGTKMGTHSVQNGTVRMGILNSDTLGNPTNVRNMSWLPNGYVTLRDNKQKEQAGELGQHNRLSTYDNVHQQFSMMNLDDKQSIDSATWSTSSCEISLPENSNSCRSSTTTCPEQDFFGGNFEDPVLDGPPQDDLSHPRDYESKSDHRSVGGRSSRATSSSDNSETFVGNSSSNHSALHSLVSSLKQEMTKQKIEYESRIKSLEQRNLTLETEMMSLHDELDQERKKFTMIEIKMRNAERAKEDAEKRNDMLQKEMEQFFSTFGELTVEPRRTERGNTIWIQ
# B2: BNO69 mutant (R82A) (protein)
# chain: B1 chain with R82A
# Target: Rho (active Rho-GTP, endogenous in HUVECs)
Protein,"fold increase in Rho activity (active Rho-GTP) in HUVECs after BNO69 knockdown with BNO69R, compared to empty vector","fold increase in Rho activity in HUVECs expressing the R82A mutant, compared to empty vector"
B1,3.1±0.5 fold increase in Rho activity with BNO69R,–
B2,–,2.6±0.7 fold increase (n=4 experiments) in Rho activity
